The target in assay [1] is Protein A (SpA) (UniProt P38507). The experiment in a line: SPR; Protein A amine-coupled to a CM5 chip (channel 2, 122 RU); antibodies eluted by pH (50 mM sodium acetate pH 3.0) as analyte at 12.5 and 25 µg/mL in HBS-P; qualitative; percent able to bind calculated from a standard curve; triplicate.
For assay [2] the target is unchanged. The experiment in a line: SPR.

Consider “human Immunoglobulin G purified from human blood plasma (antibody)”, for which the results for the percentage of antibody still able to bind in assay [1] and in assay [2] were 46.7% and 74.8%, respectively.

Source of the values: article PMC12850475.
